Measured values taken from publication PMC4141209 (FEBS Open Bio, 2014).

Target: the molecule itself
Experiment: SEC

B1: TlLhpH (trans-3-hydroxy-L-proline dehydratase from Thermococcus litoralis DSM 5473) (enzyme, UniProt H3ZMH8 1-348, looked up)
chain: MFKKLENLEKWEPPKDWMVIKTLDTHTAGEPLRIILSGFPEIPGKTILEKRRYLMENLDHLRKALMWEPRGHADMYGAIITEPVSEEADFGVIFMHNEGYSTMCGHATIALGKVAVECGLVEAKEPITEIKMDSPAGLIKIYVKVRDGKVEKVYFHNVPSFVLFKDETINVPGIGEVKYDLAYGGAFYAFVNAEEIGLKCTPEYYRQLIDVGMKIKRAIMSEKEIRHPFEEDLSFLYGTIFIGEPEDENSHSRHVCIFADGEVDRSPTGTGVSARLAILYEKGEIDIGEEITIESIIGTKFTGKVVEETRYGLYRAIIPEVGGNAYIVAKNTFLIDPQDPLKYGFFLR
  stoichiometry N: 2
